Assay [1] addresses T1, recombinant human CFP HIS-tagged (human, UniProt P27918 28-469).
T1 construct: Secreted from CHO cells, purified on Ni-NTA and by size exclusion; also called huCFP-HIS; HuCFP-HIS; not shown: HIS tag inserted through the reverse primer (C-terminal)
Kind of assay: flow cytometry; CFP-HIS on cells. On the technique in general: In flow cytometry, cells or beads pass a laser one at a time.

Assay [2] has as its target T1, recombinant human CFP HIS-tagged. Briefly: flow cytometry; CFP-HIS on enriched mouse NK cells.

T1 sequence (P27918 28-469): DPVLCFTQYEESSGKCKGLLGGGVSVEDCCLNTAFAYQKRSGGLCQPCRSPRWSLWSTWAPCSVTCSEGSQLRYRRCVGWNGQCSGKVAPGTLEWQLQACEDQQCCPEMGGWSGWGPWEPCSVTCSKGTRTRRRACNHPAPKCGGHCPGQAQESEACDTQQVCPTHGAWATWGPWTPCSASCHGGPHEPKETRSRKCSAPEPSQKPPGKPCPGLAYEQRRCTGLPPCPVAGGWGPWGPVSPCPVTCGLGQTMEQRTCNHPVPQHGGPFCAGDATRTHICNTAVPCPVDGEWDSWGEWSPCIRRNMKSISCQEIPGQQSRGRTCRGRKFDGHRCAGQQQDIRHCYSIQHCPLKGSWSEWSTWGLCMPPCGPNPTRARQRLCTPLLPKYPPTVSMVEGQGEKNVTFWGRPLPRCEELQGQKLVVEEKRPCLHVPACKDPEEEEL

B1: NKp30 on DOMsp30 cells (receptor, UniProt O14931 19-135, looked up)
chain: LWVSQPPEIRTLEGSSAFLPCSFNASQGRLAIGSVTWFRDEVVPGKEVRNGTPEFRGRLAPLASSRFLHDHQAELHIRDVRGHDASIYVCRVEVLGLGVGTGNGTRLVVEKEHPQLG
notes: also called DOMsP cells expressing NKp30
B1: in assay [1], the binding result was “no binding (tested: 10ug/ml)”.

B2: mouse NKp46 on Ncr1 WT/WT enriched mouse NK cells (receptor, UniProt Q8C567 17-325, looked up)
chain: QRINTEKETLPKPIIWAKPSIMVTNGNSVNIWCQGAQSASEYQLYFEGSFFALERPKPSRSMNKVRFFISQMTSHTAGIYTCFYQSGELWSKSSNPLKLVVTGLYDTPNLWVYPRPEVTLGENVTFFCQLKTATSKFFLLKERGSNHIQNKYGNIQAEFPMGPVTRAHRGTYRCFGSYNDYAWSFPSEPVTLLITGGVENSSLAPTDPTSSLDYWEFDLSTNESGLQKDSAFWDHTTQNLIRIGLACIILITLVWLLTEDWLSKRKDHEEANRLTNWECRRRWRMQHYFEEEQRNAISMMELKATPGAL
notes: whole, on cells; also called Ncr1 WT/WT NK cells
Turning to B2, the binding result in assay [2] is listed as “binds”.

The values above are taken from WO2018083080A2 (dated 2018).
